Assays:
[1] = target: recombinant α-secretase N-terminal soluble form of APP695 (sAPPα^695) (human); assay: AUC; sedimentation velocity, 50,000 rpm, absorbance at 280 nm, c(S) model (Sedfit); APP 2.5 μM with holo-Lf 2.5, 3.75, 5 μM or apo-Lf 2.5, 12.5 μM; weight average sedimentation coefficients fitted to a two-site binding model
[2] = target: recombinant α-secretase N-terminal soluble form of APP695 (sAPPα^695) (human); assay: other fluorescence titration; native tryptophan fluorescence, excitation 295 nm, change of intensity at 340 nm against Lf concentration, fitted to two independent sites on an acceptor; 96-well quartz microplate

holo-lactoferrin (iron-bound form of Lf) (natural protein)
Kd1:1 (first site, two-site binding model) [1]: 620 nM | Kd1:2 (second site, two-site binding model) [1]: 8.2 µM | stoichiometry N (Lf molecules per sAPPα695 molecule) [1]: 2 | Kd1:1 (first site, two-site model) [2]: 690 nM | Kd1:2 (second site, two-site model) [2]: 9.4 µM

Source: PMC8758478
